In the DeepSol protein solubility set:

Test: soluble on expression in E. coli; label from the status in PepcDB or PDB records

Sequence	soluble on expression in E. coli
MSLDLNKYKDRIITLAKPYLNREFDFADVKLTLISGLGVEINGLRIADNPEFGSEDFLSLQSLRIKVALFPLLKKKIQIKKLIMDEPVVRLVRNSNGVFNFSDMASDAEEDEKPQAKDEKRKEKKSGSEKKPDSEHNIFLAGLMVSQFTLHSGQIHFLDNFVPDAPVTMVFDSLNIELKNVSLYKPIRIYASAGLQGTTEQNLLIKGMVGPVGDNMDLVGLAMDIHVSVQNVFLHKFVPYIPDGLMLSPLEGILYMTANIKGSVHSGLDLESVIQGEKLVMSIKDSDEKIQNVNITLKEKIKYDDRKGDIGFQQLDLALNDNNVSLTGTIENIKTDPQWDVTLMAKMNALDEALALYPVFKEALPQDFRFTGPLNMEITSSGSKDAMQISGHTDMTRAEILYGEVFKKQKNIPFQISLKANKIADIIQLEAFAVNLQNASLNSSGSIEDMVNPRFDLVSTANEFSLKGWDAIVPLLKEYEPEGSVSIKNYMKGNFDDAFVNLHVSSPKLLFKFPASSDKKEDENTKQRKDVAESIRFELLAKKLADNITADGGLEMGNGTILDINFEEAKGKYSFQDDILKIQSFQMRTFEGDISLTGNYDSKSMQWDASPIINAVRIDGVVDAFTQYRGMMKGVFSGSFDMGGSLGKNDKMVTNANGSFRLLQGEIENVNLMETIIDSLLGIKEVYKYAGEKKDVLEKYDVTRFDSLDGEFSLLNDMLDLKKCYLENIYTPDVPGSDAKLKGDINFDTGKLDLSGKVILSSEHSEKLTKKAKPLKALLNEKGNIVLPVTVTGTMSNPKPLLDTSYVLNAMMNYYGKEELEKGLDKLKGKLGLEKLGLEKLWQKDEGHHHHHH	not soluble
MGSDKIHHHHHHVAAESKTIAIALNNDFINNLDLSPASTVIEQLLRDGAASHEQQLRFDINYDLEPGDPRELSEIPEIRLWFVRLDAKYPWLAFLLDWKAGEFARYAAMLVPHQFSSQDGIQYNPEALEIFLMHKIFILGDWLKQQDIPSLSRLKSMAQMLGYELDDAFFEIF	not soluble
MSCGYTGPINEQNKENIKRAIAMHAAARRTRMLQQLREGLQLYRLVDIMEKNKEVCRSHFVFEGGNDQVDSQYIVSHLDPKMSESGTLKHSKEMQILNNFQDFLMELEDGGPEDEEALCVSKVMQWLSGQAHVHLLLSERQAFKITVLFDHTCMERMPDHRICYPVDSAWTQTITFPTAHSTSLNQFKENMRIAVQQGAYFYRV	not soluble
MKKLAVLFMCAAMLASCDFKGGSKDLKAENDSLLMELTQRNAELDDMMGTFNEVQEGFRKINAAESRVDLQRGTITENSASAKQQIASDIEFISKQMEENKAQIAKLEAQLKNSKYNSTQMKKAVEALTAELKAKQQRIEELQTELASKNIRIQELDAAVSDLSAAKESLAAENEAKAKTVAEQDKSLNAAWFVFGTKSELKAQKILQSGDVLKSADFNKDYFTQIDIRTTKEIKLYSKRAELLTTHPTGSYELVKDDKGQLTLKITNPAEFWSVSRYLVIQVK	not soluble
MRIAANACPALVLNADFQPLSYFPLSLWSWQEAVKAVFMDRVCVVSEYDRVVHSPSLDLSLPSVISLKEYVPVAKRAAFTRFNVFLRDGFACQYCGIRLPAHDLTFDHVVPRSKGGVTAWNNVVTACGPCNMRKANRTPREAAMPLLQRPAEPSTHRLRNEGRSFPPGYLHESWRDFLYWDVELDPFLEHHHHHH	not soluble
MTVTSSAAIDIGGGGGGRRSDRLDSDRTSEDMSFIASPANIGASFVDVQNESSGSIDTATATLHELNYTFGMPPVTEESENMPQNYETVVELLPGEERAPINKLTEFPIEGGSLFVTNFRIVVILKDKEVEEALRFLVFPLQDIEQIDLAIPAFIHLSLKIGRMFTICFKTAEDAALVHKILYTAFQRLNRPISSIYTSRPQDWTSKNTDNPMQSLNAFAWKFSEAVDELDRDGKLPSWLLRADSVAQEITHIDFNRLGMSEHFQISSVNENFEVCPTYPEKIIVPKGITDDDIRKGAPYRSIGRFPAVIWRCRKTRAVLMRSSQPQVGILSWRNPTDEKIIEEAVKASRIEGEEKKQFIIMDARGYTSAFANRARSGGFENTEYYQQAKLEFLGLPNIHAVRGSFNNVRTMLHNLGPNEQLLTSLQTTGWLLNLSNLLVNAANCADHLSKGHSVLVHCSDGWDRTTQVTTLAKIMLDEYYRTVKGFEELIRRDWIAFGHKLYDRQLVAFGNWGTSDERSPVFLQFLEAVRHLQREQPTLFQFTHAYLIKLAKHAYSGLFGSFLFNSHKERREAMEKCKGTLVDIWRFIGPHNEEYVNQSFDEHYTGAVKPQIFSPKEERPLSGCTTPMNTSTSTNLVKSKSSESINSLNVDGSAKESSQQHPTCSTTPSDNTNSLPMSTSFIQQSLYQPKVRGVAAIDRDGVIRFEDDEQAMLRKKNKLRAEEIRRKDEKIEELRRRAVLDTNKVSPGQRQSYSESDVETTGTLERVMSDVSMVDPVNELPHFKPNTTWEGESGHCAYCKKEFNKLSVYVEDRQHHCRNCGRVVCEDCSKNRFSVIEEGKSVQKRACDSCYDSMHETDLKLSRATSLSEMSSFDSFGPSSPPASSTSSSSLNMLASMSPTRPQPIPISCKSSSNSISSPRPSPGEFSRHSSTQAVKG	not soluble
MTTDQSKLEAINQALRAQRQLVRQLDDQQASLERQLQGLTGDSAGWAADTDPALGHVLEAFHALLGSLTESLSQGDAAQLLARCAAELLPDTTGAIFVDQAGVEPANRAIAAWRGAELLTDPNALHYECTEDQAAHRLNIEAQGLYLGVVELRPLSPGRALRAREQQTLQMLASAAGLALATHTLRYRLRHRNVRDPLTGLFNRRYAEDTLERELHRAQRHQLPLSVVLIDLDRFEAYNQRHGQNAGDRMLQAMSDLLQHSFRGSDICARAAGQRFLLVLPEAAIRDAIERANDLRRELAKVRVHLRGLHLPAMTVSMGVAGYPEHADSSDDLMAAADAALQLAKHSGGNTCALAEKVPLSPHNE	soluble
MRTRIDYLADKYCFTERNESPRLRRQWQDVLEECRQTEAGPEERLRIALLNVDYVTSFELPFRLLLTRTPQLIAALREEWGISQKNVVFNDKRFGCVYSLKASLSGVPDTYRYHLSHRIRRVVGNENTSLPYQQVAREVKAPRERLKYALEAGLLVTALDGLFRFGSQRIAADVLRLRKAGMPVVTTTVEVHDNLTGTTRKVPAYHL	not soluble
MSLFKKNFDIKDDRNLTMLVDFYELTMGNGYLNKNVGNKTAYFDMFFRRVPDNGGYCIMAGVQQLTEYLSNLRFTKEDIDYLRSKHEFSEEFLSYLKDFKFECDVWAVPEGNPVFPNEPLVTVKGPAIQAQFVETMILLTINHQTLIATKANRICRAAGNRPVMEFGSRRAQGYDGAIYGARAAVIGGCSSTACTISEQMFGVNAVGTMAHSWVQLFDNEFEAFKAWADVYPENCVLLVDTYNVLKSGLPNAIKVFDEVLKPKGIRPSGIRIDSGDITYLTKKCRKILDEAGYSDCKIVISNSLDEHIITDVLLQGAEVDSFGVGERLITAKSEPVFGGVFKLCAVENDEGNIVPKIKISENQEKITNPGFKKIYRLFDKETDKALADLITLNDEVIDETKPLEIFDPIYTWKKKKLTHYYVKDLRVQLFKKGELVYENPEVLEIRNIAKKETEKLWAEVLRLENPHTYYVDLSKKLWDLKHNLLEKYSNAEGHHHHHH	soluble
FSDFIANHIFMESRCEGIIRITAISLPFMCIHNCLSNYYYSQKESFLPASSQLVEQLVRIGTIILYVRIKNVSTISIADAVTGNIFGEFAAATYCAIPLFFRSIHNKSMMQKLSCSLREYRYIVKYAFPINANQTVLHLLEGAEAILIPAILCMHGLTKDNAISQFGILTGM	not soluble
MVVSMRWLLSVFTFLCMKYSEASNPRAIILQNFMDSNKEAVKNLKDDNVLSKALVKTFGLNSSSSSSLSDESSSNLVLMDSTTPCDSGWTKSTVNGMCYKIATADTTWYAAEDWCYSQRYGSHLTSVHSEAEAQWIAATYVSTGWFPYMDNWLGLRRSCDNSTYIWTDGTPVDYLWWQPGYPGSGDPEKSCVTIWVTSLLKLNPGYVQGQFDDIWDCGTNLATPTCRYDPTSTAPHIKYDTSYTCASTTTVSTTSTVTTTKPTTTTTTPTTTTTTPTTTTTESTTTETTSTTTPTTTTTAPTTTTTASTTTFKTTTITTTTQTTTPTTTATTTKPTTTTPTTTRTPVDCSAKCDPFWVSYSDGCYAKIQGTATFETAKLGCQSVGGEMAVITDAAMNEAIRLAFSTNIDSSVSNQAWIGTSSYSNWAPGKPDKAQGVAYSSYCNVIALSVVNKGKDFGFSRGVWTDYPCSLKQEFAICKRI	not soluble
MKRILLLGGITEALAIARKLGPEHIYSLAGVGRVPTDLACQLKVGGYGGAEGMAQYIRDQGVDLLLDATHPYAAQISRNAALAARIAGIPCWALRRTAWQPGPDDDWREVADWSALVTALAPFKRPLFTLGREPLQHLNEIPKHQFWTLRALDSYPGNDRCEVIGARGPFVLEDERQLFEQRNIDVLISKNSGSSSTEPKLDVARERGLPVLILKRPQLPDVDRILWSVDEVLGVLGLAETSPKPR	not soluble
MRDKTLKAILAHAEAEHPKECCGVVAQKSRVEKYFPCENLATNPTEQFHLDPTGYVEAEDWGTITAIVHSHPDATTQPSELDMAQCDNNELPWHIVSWPEGDLRTIQPRGDLPLVGREFVLGHTDCWGLIMSYFRQTHDIELKDYRVDRHWWESGTENFYMDNWYECGFREFSGPAQPGDLIIMQVSAPVANHGGILLEDGMLLHHPYGQLSQRVPYGGYWQERTMKVVRYEISQL	not soluble
MSNEMYYVQASDPAILEKGECGGAVTALFKYLLDKGIVDGVLALKKGVDVYDAIPTFVTSSEDLLSTAGSLHCAPTMWGGIIKEYLQDAKIAVPVKPCDMRAIVELAKRAQINLDNVYMIGLNCGGTVPPKTAMEMIKLFYEVDPKDVVKEEIDKGKFIIVMKDGSHKEVKMHDLEDNGYGRRVNCQRCDEKIPRKADIAAGNWGVIGEDAGKYTFMEVCTEKGKQLLKDAEKDGYVKTKAPNPKGLEIRAKVESSMLKMGEDYKNKWLEEKYPTIEEWNRQWNKCIKCYGCRDVCPVCFCRECALTADYVDTGSIPPDPIMFQGVRMSHMAFSCVNCGQCEDVCPMEIPVARIFHKIQEKTRKELGYRPGVDDEAPPALGGSCPTQLEHHHHHH	not soluble
MCASFSPTLDSRSRQLLRTLISCYIQNGEPIGSKTLAQQAGLDISPATIRNILADLEELGLLNSPHTSAGRVPTAHGYRMFVDSLVQMQPPSEDDIRRLRVEMTGGGTQTLLGSASEILSAMTHFVGVVSAPRREQFVFRHIDFVPLDARQIMAILIFADNEVQNRVIEPRRVYEPGELERVSNYLNAHFIGRTLADIRTTVLCELRKAKDEMEQLLAHSLDLASQMLVPNDSEDIVVTGQTRLMALQDLSDMDRLRELFEIFASKREILQLLERTIDAPGVRIFIGEETGMVSMEDISLVTAPYAAHGQVLGVLGVIGPKRMAYDRVIPLVQVVAQVLGTALEPPTMP	not soluble
QVQLQQSGAELMKPGASVKISCKATGYTFSSFWIEWVKQRPGHGLEWIGEILPGSGGTHYNEKFKGKATFTADKSSNTAYMQLSSLTSEDSAVYYCARGHSYYFYDGDYWGQGTSVTVSSASTKGPSVFPLAPSSKSTSGGTAALGCLVKDYFPEPVTVSWNSGALTSGVHTFPAVLQSSGLYSLSSVVTVPSSSLGTQTYICNVNHKPSNTKVDKKVEPK	soluble
MGSDKIHHHHHHMNAVTIFVHGFNGNADSTDHLIHGAQKNGWAQKMLVVKIKNDGAMDFDGELDQQVANPMVQVLFENNRAPERRQVSWMHQLLIKLRQSFGVEQYNGVGHSLGSNVLVNLAIKFGKDSRLPALKKLVTIAGPFNGLHGFLSQDTVKDVMTKSWEPNKRTHHFKKLVRNRHLFPKGAEVLNVIGSVDGILNNDVYVAVDSARAVGYLLDGVAAKVSELMVIGPDGYHCELNRSQNVSREINQFLWDEKYIAQDFKLINSYRADKVYQLAPEELNWAN	not soluble
